Measurements: the Human Domainome abundance scans (Beltran et al. 2025)
± gives the uncertainty stated by the source.

B1: Integrator complex subunit 12, residues 155 to 213; numbered along this chain, Q96CB8 (parent)
chain: AMEMGLACVVCRQMMVASGNQLVECQECHNLYHRDCHKPQVTDKEANDPRLVWYCARCT

Variants of: B1
Assay: abundance fitness (aPCA) (normalised: wild type 0, dead -1); higher = more abundant; growth selection in yeast, the domain comes from the species named
Settings: Homo sapiens

Abundance fitness: each site, then its substitutions
Q26: F -0.062 ± 0.046; V -0.059 ± 0.043; D -0.147 ± 0.068; I -0.155 ± 0.043; A 0.007 ± 0.046; C -0.038 ± 0.049; W -0.117 ± 0.065; S -0.045 ± 0.039; P -0.014 ± 0.06; E -0.013 ± 0.086; G 0.039 ± 0.053; H -0.012 ± 0.077; K -0.039 ± 0.062; Y -0.017 ± 0.051; R -0.008 ± 0.042; T -0.052 ± 0.048; M -0.184 ± 0.08; N 0.013 ± 0.051; L -0.111 ± 0.049
G19: W -0.286 ± 0.065; K 0.065 ± 0.078; S -0.044 ± 0.04; T -0.026 ± 0.068; D 0.031 ± 0.042; E 0.058 ± 0.065; A -0.042 ± 0.042; Q -0.175 ± 0.11; V -0.088 ± 0.035; Y -0.167 ± 0.063; P -0.069 ± 0.095; N -0.014 ± 0.05; I -0.137 ± 0.051; F -0.353 ± 0.05; H -0.072 ± 0.047; R -0.116 ± 0.039; M -0.206 ± 0.078
C11: K -0.761 ± 0.092; S -0.877 ± 0.046; L -1.09 ± 0.057; A -0.937 ± 0.078; E -0.782 ± 0.13; W -0.958 ± 0.12; T -0.933 ± 0.061; M -1.07 ± 0.14; H -0.839 ± 0.055; Q -1 ± 0.1; F -0.898 ± 0.046; D -0.818 ± 0.064; Y -1 ± 0.05; I -0.856 ± 0.049; R -0.885 ± 0.061; V -1.06 ± 0.07; G -0.958 ± 0.06; N -0.673 ± 0.04
C25: M -0.792 ± 0.17; N -0.773 ± 0.11; K -0.915 ± 0.19; I -0.906 ± 0.1; W -0.959 ± 0.25; L -0.866 ± 0.09; D -0.655 ± 0.074; Q -0.458 ± 0.18; S -0.662 ± 0.065; G -0.66 ± 0.078; T -0.622 ± 0.12; R -0.714 ± 0.084; V -0.819 ± 0.082; P -0.869 ± 0.19; H -0.72 ± 0.11; E -0.824 ± 0.14
C28: N -0.561 ± 0.039; W -0.891 ± 0.058; P -0.787 ± 0.081; Q -0.801 ± 0.08; K -0.648 ± 0.072; G -0.519 ± 0.033; T -0.749 ± 0.052; M -0.835 ± 0.064; A -0.616 ± 0.049; F -0.818 ± 0.052; E -0.845 ± 0.075; R -0.816 ± 0.042; L -0.773 ± 0.048; I -0.954 ± 0.054; H -0.664 ± 0.047; V -0.845 ± 0.04; S -0.68 ± 0.034; D -0.576 ± 0.043; Y -0.714 ± 0.04
V16: R 0.019 ± 0.035; T 0.044 ± 0.044; L -0.022 ± 0.037; G 0.037 ± 0.031; D 0.017 ± 0.036; Y -0.144 ± 0.035; S 0.011 ± 0.03; F -0.02 ± 0.035; N 0.016 ± 0.036; C -0.029 ± 0.035; E 0.029 ± 0.054; Q -0.013 ± 0.072; P -0.002 ± 0.05; K 0.03 ± 0.065; W -0.148 ± 0.055; A 0.042 ± 0.036; I -0.089 ± 0.035
Q13: I -0.147 ± 0.035; A -0.088 ± 0.047; T -0.089 ± 0.039; Y -0.382 ± 0.036; E -0.074 ± 0.087; V -0.114 ± 0.041; L -0.088 ± 0.033; D -0.075 ± 0.046; C -0.125 ± 0.038; R -0.2 ± 0.043; G -0.17 ± 0.044; K 0.011 ± 0.056; W -0.758 ± 0.07; S -0.033 ± 0.032; N -0.024 ± 0.036; M -0.132 ± 0.05; H -0.043 ± 0.039; F -0.354 ± 0.035
V9: P -0.289 ± 0.045; S -0.118 ± 0.032; Y -0.147 ± 0.035; W -0.45 ± 0.095; N -0.223 ± 0.038; T -0.02 ± 0.038; Q 0.051 ± 0.069; R -0.181 ± 0.04
M15: Y -0.025 ± 0.034; I 0.028 ± 0.034; N 0.063 ± 0.034; K 0.094 ± 0.064; H 0.083 ± 0.042; R 0.023 ± 0.032; A 0.067 ± 0.037; P 0.084 ± 0.046; Q 0.115 ± 0.071; S 0.079 ± 0.03; F -0.053 ± 0.033; W -0.171 ± 0.048; E -0.081 ± 0.07; D 0.09 ± 0.035; L -0.013 ± 0.036; T 0.04 ± 0.039
E24: W -0.563 ± 0.096; Y -0.493 ± 0.052; H -0.226 ± 0.056; K -0.205 ± 0.083; T -0.157 ± 0.055; A -0.123 ± 0.049; S -0.236 ± 0.036; N -0.308 ± 0.044; G -0.3 ± 0.043; D -0.117 ± 0.045; I -0.387 ± 0.041; V -0.262 ± 0.039; L -0.376 ± 0.046; R -0.094 ± 0.049; C -0.219 ± 0.043; F -0.459 ± 0.041; Q -0.088 ± 0.086; M -0.397 ± 0.085
R12: F -0.226 ± 0.034; C -0.069 ± 0.039; V -0.463 ± 0.041; S 0.055 ± 0.031; I -0.74 ± 0.044; P -0.546 ± 0.049; M -0.081 ± 0.056; N 0.002 ± 0.034; L -0.101 ± 0.035; K 0.052 ± 0.053; Q 0.047 ± 0.068; E 0.007 ± 0.067; G 0.028 ± 0.037; D 0.038 ± 0.041; W -0.405 ± 0.066; T -0.049 ± 0.041
V10: N -0.191 ± 0.033; R -0.347 ± 0.039; E -0.11 ± 0.064; Y -0.202 ± 0.035; P -0.627 ± 0.048; I -0.047 ± 0.032; C -0.193 ± 0.041; M -0.153 ± 0.06; K -0.242 ± 0.05; H -0.161 ± 0.038; F -0.241 ± 0.034; T -0.46 ± 0.04; G -0.206 ± 0.042; W -0.381 ± 0.067; Q -0.157 ± 0.061; A -0.059 ± 0.041; S -0.401 ± 0.034
E27: G -0.043 ± 0.031; F -0.143 ± 0.035; M -0.103 ± 0.054; L -0.105 ± 0.034; Q -0.096 ± 0.083; A -0.044 ± 0.036; C -0.107 ± 0.034; V -0.184 ± 0.031; T -0.036 ± 0.039; R -0.001 ± 0.034; P -0.67 ± 0.06; S -0.007 ± 0.03; D -0.049 ± 0.036; N -0.009 ± 0.036; Y -0.208 ± 0.034; K 0.087 ± 0.063
L22: F 0.014 ± 0.036; H -0.001 ± 0.049; E -0.353 ± 0.097; P -0.115 ± 0.07; R -0.153 ± 0.037; G 0.013 ± 0.035; M -0.006 ± 0.074; K 0.01 ± 0.078; W -0.113 ± 0.05; N -0.042 ± 0.045; T -0.084 ± 0.049; D -0.292 ± 0.048; I -0.036 ± 0.042; C -0.03 ± 0.035; V -0.003 ± 0.039; Q -0.297 ± 0.12; Y 0.039 ± 0.04
Q21: T 0.084 ± 0.057; A -0.026 ± 0.049; R 0.004 ± 0.045; E -0.067 ± 0.062; S 0.019 ± 0.035; G -0.018 ± 0.035; I -0.091 ± 0.046; F -0.078 ± 0.04; M 0.079 ± 0.085; P -0.072 ± 0.082; D -0.008 ± 0.041; W -0.223 ± 0.065; Y -0.117 ± 0.039; N -0.056 ± 0.042; H 0 ± 0.05; V -0.068 ± 0.041; K -0.123 ± 0.067
N20: L -0.219 ± 0.035; K 0.02 ± 0.072; D 0.005 ± 0.036; V -0.049 ± 0.032; W -0.281 ± 0.062; A -0.03 ± 0.035; T -0.007 ± 0.038; G -0.05 ± 0.032; C -0.098 ± 0.035; I -0.089 ± 0.035; S -0.036 ± 0.03; F -0.165 ± 0.035; P -0.011 ± 0.048; Y -0.171 ± 0.034; R -0.045 ± 0.038; M -0.387 ± 0.069; E -0.007 ± 0.075; H -0.015 ± 0.038
V23: A -0.179 ± 0.039; C -0.103 ± 0.032; I 0.001 ± 0.034; E -0.251 ± 0.067; Q -0.098 ± 0.06; G -0.528 ± 0.038; W -0.045 ± 0.055; H -0.075 ± 0.044; P -0.518 ± 0.046; T -0.158 ± 0.042; F -0.021 ± 0.033; N -0.228 ± 0.037; D -0.296 ± 0.042; L 0.006 ± 0.032; K -0.164 ± 0.055; Y -0.046 ± 0.037
M14: D 0.101 ± 0.037; A 0.06 ± 0.043; E 0.042 ± 0.059; R 0.067 ± 0.046; G 0.115 ± 0.033; Y 0.019 ± 0.036; H -0.02 ± 0.11; N 0.031 ± 0.036; S 0.073 ± 0.032; K 0.085 ± 0.055; P -0.007 ± 0.14; V 0.06 ± 0.035; T 0.016 ± 0.064; Q 0.082 ± 0.28; I 0.028 ± 0.042
S18: L -0.107 ± 0.035; F -0.124 ± 0.034; K 0.009 ± 0.056; N 0.015 ± 0.035; C -0.135 ± 0.035; R -0.066 ± 0.036; D 0.043 ± 0.035; E -0.001 ± 0.055; V -0.102 ± 0.032; T 0.037 ± 0.037; G -0.002 ± 0.032; M -0.078 ± 0.057; Q 0.001 ± 0.062; I -0.129 ± 0.037; P 0.077 ± 0.055; A 0.017 ± 0.036; W -0.34 ± 0.058; H 0.014 ± 0.046; Y -0.183 ± 0.038
A17: C -0.048 ± 0.038; Y -0.091 ± 0.044; K 0.037 ± 0.06; S 0.006 ± 0.035; T -0.065 ± 0.044; Q 0.069 ± 0.09; L -0.179 ± 0.041; I -0.098 ± 0.038; V -0.075 ± 0.035; P 0.005 ± 0.061; F -0.233 ± 0.04; R -0.03 ± 0.038; W -0.388 ± 0.08; E -0.04 ± 0.074; N 0.001 ± 0.039; D -0.211 ± 0.044; M -0.049 ± 0.061
